According to the RNAGym collection of RNA variant scans (doi:10.1073/pnas.2313332121):
Variants at the floor of the assay were thinned out.

B1: TPR 5TU (parent)
chain: GGAUCUUCUCGAUCUAACAAAAAAGACAAAUCUGCCACAAAGCUUGAGAGCAUCUUCGGAUGCAGAGGCGGCAGCCUUCGGUGGCGCGAUAGCGCCAACGUUCUCAACUAUGACACGCAAAACGCGUGCUCCGUUGAAUGGAGUUUAUCAUG

Variants of: B1
Experiment: polymerase ribozyme fitness, log enrichment relative to wild type (log ratio); higher = more active; in vitro selection for triplet polymerase activity
Outline: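 Mutant libraries were PCR-built and transcribed for each subunit of a heterodimeric triplet polymerase ribozyme and selected for one round in triplicate at −7 °C, frozen, before gel excision of extended constructs and streptavidin-bead capture. Input and output libraries were Illumina-sequenced, keeping genotypes with ≥10 input reads and ≥1 read per output. Fitness is a logarithmic ratio of genotype to wild-type enrichment, in base 2, using inverse-variance-weighted replicate averages.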
In the case of GGAUCUUCUCGAUCUAACAAAAAAGACAAACCUGCCACAAAGCUUGAGAGCAUCUUCGGAUGCAGAGGCGGCAGCCUUCGGUGGCGCGAUAGCGGCAACGUUCUCAACUAUGACACGCAAAACGCGUGCUCCGUUGAAUGGAGUUUAUCAUG, the “polymerase ribozyme fitness (log ratio)” value is reported as -0.224. With GGAUCUUCUCGAUCUAACAAAAAAGACAAACCUGCCACAAAGCUUGAGAGCAUCUUCGGAUGCAGAGGCGGCAGCCUUCGGUGGUGCGAUAGCGCCAACGUUCUCAACUAUGACACGCAAAACGCGUGCUCCGUUGAAUGGAGUUUAUCAUG the “polymerase ribozyme fitness (log ratio)” value was 0.604. In the case of GGAUCUUCUCGAUCUAACAAAAAAGACAAACCUGCCACAAAGCUUGAGAGCAUCUUCGGAUGCAGAGGCGGCAGCCUUCGGUGACGCGAUAGCGCCAACGUUCUCAACUAUGACACGCAAAACGCGUGCUCCGUUGAAUGGAGUUUAUCAUG, the “polymerase ribozyme fitness (log ratio)” value is reported as 0.831. For GGAUCUUCUCGAUCUAACAAAAAAGACAAACCUGCCACAAAGAUUGAGAGCAUCUUCGGAUGCAGCGGCGGCAGCCUUUGGUGGAGCGAUAGCGCCAACGUUCUCAACUAUGACACGCACAACGCGUGCUCCGUUGAAUUGAGUUUAUCAUG, the “polymerase ribozyme fitness (log ratio)” value was ≤ -4.2. With GGAUCUUCUCGAUCUAACAAAAAAGACAAACCUGCCACAAAGCUUGAGAGCAUCUUGGGAUGCAGAGGCGGCAGCCUUCGGUGGCGUGAUAGCGCCAACGUACUCAACUAUGACACGCAAAACGCGUGCUCCGUUAAAUGGAGUUUAUCAUG the “polymerase ribozyme fitness (log ratio)” value was -0.199. In the case of GGAUCUUCUCGAUCUAACAAAAAAGACAAACCUGCCACAAAGCUUGAGAGCAUUUUCGGAUGCAGAGGCGUCAGCCUUCGGUGGCGCGAUAGCGCUAACGUUCUCAACUAUGACACGCAAAACGCGUGCUCCGUUGAAUGGAGUUUAUCAUG, the “polymerase ribozyme fitness (log ratio)” value is reported as -3.79. In the case of GGAUCUUCUCGAUCUAACAAAAAAGACAAACCUGCCACAAAGCUUGGGUGCAUCUUCGGAUGCAGAGGCGGCAGCCUUCGGUGGCGCGAUAGCACCAACGUUCUCAACUAUGACACGCGAAACGCGUGCUCCGUUCAAUGGAGUUUAUCAUG, the “polymerase ribozyme fitness (log ratio)” value is reported as -4.04. In the case of GGAUCUUCUCGAUCUAACAAAAAAGACAAACCUGCCACAAAGCUUGAGAGCAUCUUCAGAUGCAGAGGCGGCAGCCUUCGGUGGCGCGAUAGCUCCAACGUUCUCAACUAUGACACGCAAAACGCGUGCUCCGUUGAAUGGAUUUUAUCAUG, the “polymerase ribozyme fitness (log ratio)” value is reported as -2.9. In the case of GGAUCUUCUCGAUCUAACAAAAAAGACAAACCUGCCACAAGGCUUGAGAGCAACAUCGGAUGCAGAGGCGGCAGCCUUCGGUGGCGCGAUAGCGCCAACGUUCUCAACUAUGACACGCAAAACGCGUGCUCCGUUGAAUGGAGUUUAUCAUG, the “polymerase ribozyme fitness (log ratio)” value is reported as -0.0378. For GGAUCUUCUCGAUCUAACAAAAAAGACAAACCUGCCAGAAAGCUUGGGAGAAUCUACGGAUGCAGAGGCGGCAGCCUUCGGUCGCGCGAUAGCGCCAACGUUCUCAACUAUGACACGCAAAACGCGUGCUCCGUUGAAUGGAGUUCACCAUG, the “polymerase ribozyme fitness (log ratio)” value was ≤ -4.2. In the case of GGAUCUUCUCGAUCUAACAAAAAAGACAAACCUGCCACAAAGCUUGAGAGCAUCUUCGGAUGCAGAGGCGGCAGCCUUCGGUGGCCCGAUAGUGCCAUCGUUCUCAACUAUGACACGCAAAACGCGUGCUCCGUUGAAUGGAGUUUAUCAUG, the “polymerase ribozyme fitness (log ratio)” value is reported as -1.96. In the case of GGAUCUUCUCGAUCUAACAAAAAAGACAAACCUGCCACAAAGCUUGAGAGCAUAUUCGGAUGCAGAGGCGGCAGCCUUCGGUGGCGCGAUAGGGCCAACGUUCUCAACUAUGACACGCAAAACGCGUGCUCCGUUGAAUGGAGUUUAUCAUG, the “polymerase ribozyme fitness (log ratio)” value is reported as ≤ -4.2. With GGAUCUUCUCGAUCUAACAAAAAAGACAAACCUGCCACAAAGCUUCAGAGCAUCUUCGGAUGCAGAGGCGGCAGCCUUCGGUGGCGCGAUAACGCCAACGUUCUCAACUAUGACACGCAAAACGCGUGCUCCGUUGAAUGGAGUUUAUCAUG the “polymerase ribozyme fitness (log ratio)” value was -3.48. In the case of GGAUCUUCUCGAUCUAACAAAAAAGACAAACCUGCCACAAAGCUUGAGAGCAUCUUCGGAUGCAGAGGCGGCAGCCUUCGGUGGCUCGAUAGCGCUAACGUUCUCAACUAUGACACGCAAAACGCGUGCUCCGUUGAAUGGAGUUUAUCAUG, the “polymerase ribozyme fitness (log ratio)” value is reported as -0.694. For GGAUCUUCUCGAUCUAACAAAAAAGACAAACCUGCCACAAAGCUUGAGAACAUCUUCGGAUGCAGAGGCGGCAGCCUUCGGUGGCGCGAUAGCGCGAACGUUCUCAACUAUGACACGCAAAACGCGUGCUCCGUUGAAUGGAGUUUAUCAUG, the “polymerase ribozyme fitness (log ratio)” value was -0.777. For GGAUCUUCUCGAUCUAACAAAAAAGACAAACCUGCCACAAAGCUUGAGAGCAUCUUCGGAUGCAGAGGCGGCAGCCUUCGGUGGCGCGAUAGCGCCAAGGUUUUCAACUAUGACACGCAAAACGCGUGCUCCGUUGAAUGGAGUUUAUCAUG, the “polymerase ribozyme fitness (log ratio)” value was -0.958. With GGAUCUUCUCGAUCUAACAAAAAAGACAAACCUGCCACAAAGCUUGAGAGCAUCUUCGGAUGCAGAGGUGGCAGCCUUCGGUGGCUCGAUAGCGCUAACGUUCUCAACUAUGACACGCAAAACGCGUGCUCCGUUGAAUGGAGUUUAUCAUG the “polymerase ribozyme fitness (log ratio)” value was -3.55. For GGAUCUUCUCGAUCUAACAAAAAAGACAAACCUGCCACAAAGCUUGAGAGCAUCUUCGGCUGCAGAGGCGGCAGCCUUCGGUGGCGCGAUAACGCCAAAGUUCUCAACUAUGACACGCAAAACGCGUGCUCCGUUGAAUGGAGUUUAUCAUG, the “polymerase ribozyme fitness (log ratio)” value was ≤ -4.2. In the case of GGAUCUUCUCGAUCUAACAAAAAAGACAAACCUGCCACAAAACGUGAGAGCAUCUUCGGGUGCAGGGGCGGCAGCCUUCGGAGGAGCGAUAGCGCCAACGUUCUCAACUAUGACACGCAAAACGCGUACUCCGUUGAAUGGAGUUUAUCAUG, the “polymerase ribozyme fitness (log ratio)” value is reported as ≤ -4.2. In the case of GGAUCUUCUCGAUCUAACAAAAAAGACAAACCUGUCACAAAGCUUGAGAGCAUCUUCGGAUGCAGAGCCGGCAGCCUUCGGUGGCGCGAUAUCGCCAACGUUCACAACUAUGACUCGCCAAACGCGUGCUCCGUUGAAUGGAAUUUAUCAUG, the “polymerase ribozyme fitness (log ratio)” value is reported as ≤ -4.2. For GGAUCUUCUCGAUCUAACAAAAAAGACAAACCUGCCACAAAGCUUGAGAGCAUCUUCGGAUGCAGAGGCGGCAGCCUUCGGUGGCGAGAUAGCGCCAACGUUCUCAACUAUGACACGCAAAACGCGUGCUCCGUUGAAUGGAGUUUAUCAUG, the “polymerase ribozyme fitness (log ratio)” value was -4.2. With GGAUCUUCUCGAUCUAACAAAAAAGACAAACCUGGUACAAAGCUUGAGAGGAUCUUCGGAUGCAGAGGCGGCAGCCUUCGGUGGCGCGAUACCGCCAACGUUCUCAACAAUGACACGCAAAACGCGUGCUCCGUUGAAUGGAGUUUAUCAAG the “polymerase ribozyme fitness (log ratio)” value was ≤ -4.2. With GGAUCUUCUCGAUCUAACAAAAAAGACAAACCUGCCACAAAGCUUGAGAGCAUCUUCGGAUGCAGAGGCGGCAGCCUUCGGUCGCGCGAUAGCGCCAACGUUCUCAACUAUGACACGCAAAACGCGUGCUCCGUUGAAUCGAGUUUAUCAUG the “polymerase ribozyme fitness (log ratio)” value was -4.18. With GGAUCUUCUCGAUCUAACAAAAAAGACAAACCUGCAACAAAGCUUGAGAGCAUCUUCGGAUGCAGAGGCGGCAGCCUUCGGUGGCGCGAUAGCGCUAACGUUCUCAACUAUGACACGCAAAACGCGUGCUCCGUUGAAUGGAGUUUAUCGUG the “polymerase ribozyme fitness (log ratio)” value was ≤ -4.2. With GGAUCUUCUCGAUCUAACAAAAAAGACAAACCUGCCACAAAGCUUGUGAGCAUCUUCGGAUGCAGAGGCGGCAGCCUUCGGUGGCGCAAUAGCGCCAACGUUCUCAAAUAUGACACGCAAAACGCGUGCUCCGUUGAAUGGAGUUUAUCAUG the “polymerase ribozyme fitness (log ratio)” value was ≤ -4.2. For GGAUCUUCUCGAUCUAACAAAAAAGACAAACCUGCCACAAAGCUUGAGAGCCUCUUUGCAUGCAGAGGCGGCAGCCUUCGGUGGCGCGAUAGCGCCAAUGUUCUCAACUAUGACACGCAAAACGCGUGCUCCGUUGAAUGGAGUGUAUCAUG, the “polymerase ribozyme fitness (log ratio)” value was -3.63. In the case of GGAUCUUCUCGAUCUAACAAAAAAGACAAACCCGCCACAAAGCUUGAGAUCAUCUUCGGAUGCAGAGGCGGCAGCUUUCGGUCGCGCGAUAGCGCCAACGUUCUCAACUAUGACACGCAAAACGCGUGCUCCGUUGAAUGGAGUUUAUCAUG, the “polymerase ribozyme fitness (log ratio)” value is reported as ≤ -4.2. In the case of GGAUCUUCUCGAUCUAACAAAAAAGACAAACCUUCCACAAAGCUUGAGAGCUUCUACGGGUGCAGAGGCGGCAGCCUUCGGUGACGCGAUAACGGCAACGUUCUAAACUCUGACACGCAAAACGCGUGCUCCCUUGAAUGGAGUUUAACAUG, the “polymerase ribozyme fitness (log ratio)” value is reported as ≤ -4.2. With GGAUCUUCUCGAUCUAACAAAAAAGACAAACCUGCCACAAAGCUUGAGAGCAUCUUCGGAUGCAGAGGCGGCAGCCUUCGGUGGCGCGAUAGCGCCAACGUUCUCAACUAUGACACGCAACACGCGUGCUCCGAUGAAUGGAGUUUAUCAUG the “polymerase ribozyme fitness (log ratio)” value was -1.76. In the case of GGAUCUUCUCGAUCUAACAAAAAAGACAAACCUGCCACAAAGCUUGAGAGCAUCUUCGGCUGCAGAGGCGGCAGCCUUCGGUGGCGCGAUAGCGACAAGGUUCUCAACUAUGACACGCAAAGCGCGUGCUCCGUUGAAUGGAGUUUAUCAUG, the “polymerase ribozyme fitness (log ratio)” value is reported as -3.66. In the case of GGAUCUUCUCGAUCUAACAAAAAAGACAAACCUGCCACAAUGCUUGAGAGCAUCUUCGGAUGCAGAGGCGGCAGCCUUCGGUGGCGCGAUAGCGCCAACGUUCUCAACUAUGACGCGCAAAACGCGUGCUCCGUUGAAUGGAGGUUAUCAUG, the “polymerase ribozyme fitness (log ratio)” value is reported as -1.6. For GGAUCUUCUCGAUCUAACAAAAAAGACAAACCUGCCACAAAGCUUGAGAGCAUCUUCGGAUGCAGAGGCGGCAGCCUUCGGUGGCGCGAUAGCGCGAACGUUCUCAACUAUGACACGCAAAACGCGUGCUCCGUUGUAUGGAGUUUAUCAUG, the “polymerase ribozyme fitness (log ratio)” value was ≤ -4.2. With GGAUCUUCUCGAUCUAACAAAAAAGACAAACCUGCCACAAAGCUUGAGAGCAUCUUCGGAUGCAGAGGCGGCAGCUUUCGGUGGCGCGAUAGGGCCAACGUCCUCAACUAUGACACGCAAAACGCGUGCUCCGUUGAAUGGAGUGUAUCAUG the “polymerase ribozyme fitness (log ratio)” value was ≤ -4.2. For GGAUCUUCUCGAUCUAACAAAAAAGACAAACCUGCCACAAAGCUUGAGAGCAUCUUCGGUUGCAGAGGCGGCAGCCUUCGGUGGCGCGAUAGCGCCAACGUUCUCAACUGUGACACGGAAAACGCGUGCUCCGUUGAAUGGAGCUUAUCAUG, the “polymerase ribozyme fitness (log ratio)” value was -3.59. With GGAUCUUCUCGAUCUAACAAAAAAGACAAACCUGCCACAAAGCUUGAGAGCAUCUUCGGAUGGAGAGGCGGCAGCCUUCGGUAGCGCGAUAGCGCUAACGUUCUCAACUAUGACACGCAAAACGCGUGCUCCGUUGAAUGGAGUUUAUCAUG the “polymerase ribozyme fitness (log ratio)” value was 1.61. With GGAUCUUCUCGAUCUAACAAAAAAGACAAACCUGCCACAAAGCUUGAGAGCAUCUUCGGAUGCAGAGGUGGCAGCCUUCGGUGGCUCGAUAGCGCUAACGUUCUCAACUAUGACACGCAAAACGCGUGCUCCGUUGAAUGGGGUUUAUCAUG the “polymerase ribozyme fitness (log ratio)” value was -2.99. In the case of GGAUCUUCUCGAUCUAACAAAAAAGACAAACCUGCCACAAAGCAUGAGAGCAUAUUCGGAUGCAGAGGCGGCAGCGUUCGGUGGCGCGAUAGCGGCAACGUUCUGAGCUAUGACACGCAAAACGCGUGCUCCGUUGAAUGGAGUUUAUCAUG, the “polymerase ribozyme fitness (log ratio)” value is reported as -4.01. In the case of GGAUCUUCUCGAUCUAACAAAAAAGACAAACCUGCCACAAAGCUUGAGAGCAUCUUCGGAUGCAGAGGCGGCAGCCUUGGGUGGCGCGAUAGCGCCAACGUUCUCAACUAUGACACGCAAAACGCGUGCUCCGUUGAACGGAGGUUAUCAUG, the “polymerase ribozyme fitness (log ratio)” value is reported as ≤ -4.2.
